Data taken from PMC3064778.

Assays:
[1] = biological target: AddANBN (Bacillus subtilis, UniProt P23478;P23477 1-1232;1-1166, D1172A;D961A); test: EMSA
[2] = biological target: AddAB (Bacillus subtilis, UniProt P23478;P23477 1-1232;1-1166); test: EMSA

B1: Cy5Bind15 (dsDNA)
DNA 1: CCGCCTCTTGGCCGATTCA
DNA 2: TCGGCCAAGAGGCGGTTTG
B1: binds [1].

B2: Bind15 (dsDNA)
DNA 1: CCGCCTCTTGGCCGATTCA
DNA 2: TCGGCCAAGAGGCGGTTTG
B2: binds [2].
